According to patent US20110039770A1 (PHARMAGAP, published 2011):
Where no end group is shown, it is not given here.

What was measured:
[1] = target: PKC-βII, purified isoform (UniProt P05771-2 1-673); assay: cell-based or functional assay
PKC-ε, purified isoform = target: T1, PKC-ε, purified isoform (UniProt Q02156 1-737); assay: cell-based or functional assay
T1 sequence (looked up): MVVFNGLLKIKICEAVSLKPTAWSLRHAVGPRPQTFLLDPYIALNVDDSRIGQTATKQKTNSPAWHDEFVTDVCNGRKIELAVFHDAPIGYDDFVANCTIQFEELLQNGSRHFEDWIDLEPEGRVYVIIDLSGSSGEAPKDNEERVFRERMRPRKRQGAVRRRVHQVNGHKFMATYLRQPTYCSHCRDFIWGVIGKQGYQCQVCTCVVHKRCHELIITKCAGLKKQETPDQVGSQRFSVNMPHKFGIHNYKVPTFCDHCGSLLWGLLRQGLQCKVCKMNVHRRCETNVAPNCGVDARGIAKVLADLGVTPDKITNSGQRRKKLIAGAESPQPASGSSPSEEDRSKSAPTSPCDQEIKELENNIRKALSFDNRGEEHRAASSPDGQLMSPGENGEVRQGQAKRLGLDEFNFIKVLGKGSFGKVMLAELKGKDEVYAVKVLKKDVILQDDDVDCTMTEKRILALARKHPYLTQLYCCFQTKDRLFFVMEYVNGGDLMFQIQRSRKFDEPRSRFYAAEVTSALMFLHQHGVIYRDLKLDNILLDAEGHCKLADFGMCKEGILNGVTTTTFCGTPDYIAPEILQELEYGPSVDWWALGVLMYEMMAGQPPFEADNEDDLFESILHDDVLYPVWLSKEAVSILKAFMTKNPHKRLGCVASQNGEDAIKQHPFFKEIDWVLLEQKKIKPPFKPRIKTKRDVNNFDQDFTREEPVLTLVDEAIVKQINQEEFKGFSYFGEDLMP

PKC-βI, purified isoform = PKC-βI, purified isoform (UniProt P05771-1 1-671); assay: cell-based or functional assay
PKC-α, purified isoform = PKC-α, purified isoform (UniProt P17252 1-672); assay: cell-based or functional assay
[2] = target: T2, PKC-βI (purified isoform) (Homo sapiens (Human), UniProt P05771 2-671); assay: competitive ELISA, coated purified PKC-βI, vs anti-PKC βI (SC-209); PRE 100 µM
T2 construct: also called PKC-beta I; PKC beta 1
Method: (§1) Greiner 96 well ELISA plates were coated with the appropriate PKC isoform diluted in PBSN (PBS with Calcium/Magnesium+0.05% Sodium azide w/w). 50 μL/well at 250 ng/mL was used. Control wells contained PBSN only. Plates were incubated overnight at 4° C.
(§2) The plates were washed 3 times with 200 μL of dH₂O per well, then 100 μL of blocking solution was added per well and the plate incubated for 1 h at 37° C. The washing steps with dH₂O were repeated and 50 μL of the appropriate PRE solution (PRE stock solution [20 mM in DMSO] diluted in PBSN) was added and the plate incubated for 1 h at room temperature.
(§3) 50 μL of 1:1000 dilution of Alkaline Phosphatase (AP) conjugated antibody (anti-rabbit for all except zeta, which was anti-goat) was then added and the plate incubated for 1 h at room temperature. Washing with dH₂O was then repeated. Finally, 100 μL of pNPP solution in pNPP buffer (2 mM MgCl₂, 100 mM Sodium bicarbonate in water, pH 9.8) was added to all wells and incubated for 8 minutes for α, βI, βII ε, and ζ, or for 15-20 mins for δ (until sufficient coloration is observed). The reaction was stopped by addition of Stop solution (2N NaOH) and the absorbance at 405 nm was read on a Galaxy Plate reader.

PKC-δ (purified isoform) [3] = target: T3, PKC-δ (purified isoform); assay: competitive ELISA, coated purified PKC-δ, vs anti-PKC δ (SC-213); PRE 200 µM
T3 construct: also called PKC-delta
Method: as §1, §2, §3

[4] = target: T4, PKC-ε (endogenous, IMR-32 lysate) (human, UniProt Q02156 1-737); assay: WB competition Protocol B, IMR-32 extract, vs anti-PKC-ε Ab; PKC-ε Band 2; 50 µg peptide
T4 construct: Band 1 and Band 2 (alternate splicing variants, not identified further) are kept under one molecule; the band is named in the assay field of each row; also called PKC-epsilon; PKC-ε Band 1
T4 sequence (looked up): T1 sequence (looked up)
Method: (§4) The ability of the peptides PRE 2 and PRE 3 (see Table 4) to interfere with the binding of a PKC-α-specific polyclonal antibody (Santa Cruz Biotechnology, Inc.) to PKC-α was determined using a modified version of the protocol outlined above in which the test peptide was added directly to the cell extract prior to electrophoresis at a concentration of either 5× or 15× the concentration of the protein applied to each well of the gel for the Western blots (20 μg).
(§5) Peptides PRE 2, PRE 3 and PRE 4 (see Table 4) were tested for their ability to interfere with the binding of isoform-specific polyclonal antibodies (Santa Cruz Biotechnology, Inc.) to […] using the general protocol described in Example 3. Two bands, representing alternate splicing variants of PKC-ε, were identified on the Western blot using this anti-PKC-ε antibody.

PKC-α (purified isoform) [5] = target: T5, PKC-α (purified isoform) (Homo sapiens (Human), UniProt P17252 2-672); assay: competitive ELISA, coated purified PKC-α, vs anti-PKC α (SC-208); PRE 50 µM
T5 construct: also called purified PKC-alpha; commercially purified PKC-alpha
Method: as §1, §2, §3

[6] = target: T4, PKC-ε (endogenous, IMR-32 lysate); assay: WB competition Protocol B, IMR-32 extract, vs anti-PKC-ε Ab; PKC-ε Band 1; 100 µg peptide
Method: as §4, §5

[7] = target: T2, PKC-βI (purified isoform); assay: competitive ELISA, coated purified PKC-βI, vs anti-PKC βI (SC-209); PRE 200 µM
Method: as §1, §2, §3

[8] = target: T2, PKC-βI (purified isoform); assay: competitive ELISA, coated purified PKC-βI, vs anti-PKC βI (SC-209); PRE 50 µM
Method: as §1, §2, §3

PKC-δ (purified isoform) [9] = target: T3, PKC-δ (purified isoform); assay: competitive ELISA, coated purified PKC-δ, vs anti-PKC δ (SC-213); PRE 50 µM
Method: as §1, §2, §3

[10] = target: T4, PKC-ε (endogenous, IMR-32 lysate); assay: WB competition Protocol B, IMR-32 extract, vs anti-PKC-ε Ab; PKC-ε Band 2; 100 µg peptide
Method: as §4, §5

PKC-δ (purified isoform) [11] = target: T3, PKC-δ (purified isoform); assay: competitive ELISA, coated purified PKC-δ, vs anti-PKC δ (SC-213); PRE 100 µM
Method: as §1, §2, §3

[12] = target: T4, PKC-ε (endogenous, IMR-32 lysate); assay: WB competition Protocol B, IMR-32 extract, vs anti-PKC-ε Ab; PKC-ε Band 1; 50 µg peptide
Method: as §4, §5

[13] = target: T4, PKC-ε (endogenous, IMR-32 lysate); assay: WB competition Protocol B, IMR-32 extract, vs anti-PKC-ε Ab; PKC-ε Band 2; 20 µg peptide
Method: as §4, §5

PKC-α (purified isoform) [14] = target: T5, PKC-α (purified isoform); assay: competitive ELISA, coated purified PKC-α, vs anti-PKC α (SC-208); PRE 100 µM
Method: as §1, §2, §3

[15] = target: T4, PKC-ε (endogenous, IMR-32 lysate); assay: WB competition Protocol B, IMR-32 extract, vs anti-PKC-ε Ab; PKC-ε Band 1; 20 µg peptide
Method: as §4, §5

PKC-α (purified isoform) [16] = target: T5, PKC-α (purified isoform); assay: competitive ELISA, coated purified PKC-α, vs anti-PKC α (SC-208); PRE 200 µM
Method: as §1, §2, §3

PKC-βII, purified isoform, sequence (P05771 other isoform, or with tags, fused parts or gaps limits assumed): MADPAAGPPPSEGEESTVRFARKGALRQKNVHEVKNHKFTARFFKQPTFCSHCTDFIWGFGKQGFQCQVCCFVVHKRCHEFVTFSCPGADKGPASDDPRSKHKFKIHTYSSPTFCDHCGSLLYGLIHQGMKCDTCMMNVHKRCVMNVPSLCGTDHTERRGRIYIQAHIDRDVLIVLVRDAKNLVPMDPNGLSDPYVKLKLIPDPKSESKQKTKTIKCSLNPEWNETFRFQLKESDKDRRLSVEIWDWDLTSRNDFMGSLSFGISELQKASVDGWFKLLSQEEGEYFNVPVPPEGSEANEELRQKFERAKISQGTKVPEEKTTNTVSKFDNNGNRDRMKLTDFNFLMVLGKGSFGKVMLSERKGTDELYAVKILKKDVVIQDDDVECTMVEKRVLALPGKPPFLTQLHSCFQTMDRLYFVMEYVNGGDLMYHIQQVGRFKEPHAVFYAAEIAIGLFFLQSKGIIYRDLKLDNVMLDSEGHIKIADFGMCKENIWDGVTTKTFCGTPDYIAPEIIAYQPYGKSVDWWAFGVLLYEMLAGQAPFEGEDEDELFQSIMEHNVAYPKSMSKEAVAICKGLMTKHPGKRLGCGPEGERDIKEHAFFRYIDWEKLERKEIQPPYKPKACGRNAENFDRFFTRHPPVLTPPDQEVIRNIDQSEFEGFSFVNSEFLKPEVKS
PKC-βI, purified isoform, sequence (P05771 whole entry, canonical isoform): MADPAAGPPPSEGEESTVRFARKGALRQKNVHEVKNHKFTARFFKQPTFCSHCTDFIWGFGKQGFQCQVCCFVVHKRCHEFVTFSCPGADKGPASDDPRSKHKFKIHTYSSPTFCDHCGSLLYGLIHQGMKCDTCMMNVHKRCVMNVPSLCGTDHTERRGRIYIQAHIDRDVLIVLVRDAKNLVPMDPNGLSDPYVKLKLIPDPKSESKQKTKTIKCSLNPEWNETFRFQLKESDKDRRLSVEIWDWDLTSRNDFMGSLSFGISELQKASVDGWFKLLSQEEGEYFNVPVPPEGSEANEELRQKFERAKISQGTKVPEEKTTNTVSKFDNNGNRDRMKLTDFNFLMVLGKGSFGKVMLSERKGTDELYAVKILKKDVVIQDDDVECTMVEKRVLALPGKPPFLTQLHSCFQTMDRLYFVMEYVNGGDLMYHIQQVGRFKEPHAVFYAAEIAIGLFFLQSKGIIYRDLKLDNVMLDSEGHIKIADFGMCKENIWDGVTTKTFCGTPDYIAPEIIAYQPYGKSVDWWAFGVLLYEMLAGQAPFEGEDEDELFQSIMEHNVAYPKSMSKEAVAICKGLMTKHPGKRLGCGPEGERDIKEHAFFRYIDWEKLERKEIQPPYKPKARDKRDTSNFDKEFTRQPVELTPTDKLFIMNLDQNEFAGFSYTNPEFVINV
T2 sequence (P05771 2-671 limits assumed): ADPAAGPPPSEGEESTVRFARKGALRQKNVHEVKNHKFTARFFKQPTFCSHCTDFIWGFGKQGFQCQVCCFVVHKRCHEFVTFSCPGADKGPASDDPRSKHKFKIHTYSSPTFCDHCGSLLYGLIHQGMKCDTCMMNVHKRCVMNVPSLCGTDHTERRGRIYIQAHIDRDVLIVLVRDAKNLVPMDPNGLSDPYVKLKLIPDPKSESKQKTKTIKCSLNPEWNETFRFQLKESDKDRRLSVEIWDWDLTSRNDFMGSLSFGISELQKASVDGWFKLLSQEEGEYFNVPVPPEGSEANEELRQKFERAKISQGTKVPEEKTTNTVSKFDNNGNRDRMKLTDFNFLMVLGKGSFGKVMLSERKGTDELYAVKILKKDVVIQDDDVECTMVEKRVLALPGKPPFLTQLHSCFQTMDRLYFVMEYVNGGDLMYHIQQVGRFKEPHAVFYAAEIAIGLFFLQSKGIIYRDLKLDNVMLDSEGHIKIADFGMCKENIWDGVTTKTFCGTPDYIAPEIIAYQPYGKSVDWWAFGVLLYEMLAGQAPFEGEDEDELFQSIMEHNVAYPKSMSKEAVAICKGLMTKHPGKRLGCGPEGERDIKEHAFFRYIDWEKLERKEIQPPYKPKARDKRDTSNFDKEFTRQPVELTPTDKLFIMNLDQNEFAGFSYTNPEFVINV
T3 sequence (Q05655 whole entry, stated change not applied, canonical isoform): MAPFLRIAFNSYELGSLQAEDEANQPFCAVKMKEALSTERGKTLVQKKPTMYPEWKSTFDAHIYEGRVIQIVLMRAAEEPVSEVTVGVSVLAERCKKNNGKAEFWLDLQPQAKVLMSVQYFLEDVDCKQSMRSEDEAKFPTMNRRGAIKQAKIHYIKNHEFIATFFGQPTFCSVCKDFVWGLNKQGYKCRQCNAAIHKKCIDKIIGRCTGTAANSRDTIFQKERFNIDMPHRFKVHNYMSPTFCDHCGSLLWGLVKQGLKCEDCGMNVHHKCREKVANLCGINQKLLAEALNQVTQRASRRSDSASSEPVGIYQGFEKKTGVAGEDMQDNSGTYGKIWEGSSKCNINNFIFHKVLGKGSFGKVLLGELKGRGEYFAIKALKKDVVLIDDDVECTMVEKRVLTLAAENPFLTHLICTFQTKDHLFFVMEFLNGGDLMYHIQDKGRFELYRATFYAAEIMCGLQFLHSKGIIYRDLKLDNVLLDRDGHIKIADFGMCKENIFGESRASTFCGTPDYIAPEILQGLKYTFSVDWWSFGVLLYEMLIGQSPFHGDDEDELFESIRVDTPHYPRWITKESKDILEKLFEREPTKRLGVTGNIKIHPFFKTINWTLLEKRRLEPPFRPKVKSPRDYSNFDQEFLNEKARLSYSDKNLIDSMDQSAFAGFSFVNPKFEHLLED

FRRCFRL [compound PKI 4]
% Inhibition of PKC activity at 150 µM [1]: 83% | % Inhibition of PKC activity at 300 µM [1]: 83% | % Inhibition of PKC activity at 600 µM [1]: 82% | % Inhibition of PKC activity at 150 µM (PKC-ε, purified isoform): 55% | % Inhibition of PKC activity at 300 µM (PKC-ε, purified isoform): 55% | % Inhibition of PKC activity at 600 µM (PKC-ε, purified isoform): 77% | % Inhibition of PKC activity at 150 µM (PKC-βI, purified isoform): 72% | % Inhibition of PKC activity at 300 µM (PKC-βI, purified isoform): 72% | % Inhibition of PKC activity at 600 µM (PKC-βI, purified isoform): 82% | % Inhibition of PKC activity at 150 µM (PKC-α, purified isoform): 80% | % Inhibition of PKC activity at 300 µM (PKC-α, purified isoform): 80% | % Inhibition of PKC activity at 600 µM (PKC-α, purified isoform): 80%

FRRK(adenine PNA)FRL [compound PKI 3]
% Inhibition of PKC activity at 150 µM [1]: 31% | % Inhibition of PKC activity at 300 µM [1]: 83% | % Inhibition of PKC activity at 600 µM [1]: 81% | % Inhibition of PKC activity at 150 µM (PKC-ε, purified isoform): 38% | % Inhibition of PKC activity at 300 µM (PKC-ε, purified isoform): 53% | % Inhibition of PKC activity at 600 µM (PKC-ε, purified isoform): 68% | % Inhibition of PKC activity at 150 µM (PKC-βI, purified isoform): 37% | % Inhibition of PKC activity at 300 µM (PKC-βI, purified isoform): 76% | % Inhibition of PKC activity at 600 µM (PKC-βI, purified isoform): 80% | % Inhibition of PKC activity at 150 µM (PKC-α, purified isoform): 47% | % Inhibition of PKC activity at 300 µM (PKC-α, purified isoform): 51% | % Inhibition of PKC activity at 600 µM (PKC-α, purified isoform): 82%

Ac-AKGIQEVKGGDAQNLIGISI-NH2 (also called peptide PRE 3) [PRE 3]
relative binding capacity (100-%n, DMSO subtracted) [2]: 22.5% | relative binding capacity (100-%n, DMSO subtracted) (PKC-δ (purified isoform) [3]): 57% | Band Intensity [4]: 0 | Inhibition (%) [4]: 100% | Relative Intensity (%) [4]: 0% | relative binding capacity (100-%n, DMSO subtracted) (PKC-α (purified isoform) [5]): 17.5% | Band Intensity [6]: 0 | Inhibition (%) [6]: 100% | Relative Intensity (%) [6]: 0% | relative binding capacity (100-%n, DMSO subtracted) [7]: 23% | relative binding capacity (100-%n, DMSO subtracted) [8]: 26% | relative binding capacity (100-%n, DMSO subtracted) (PKC-δ (purified isoform) [9]): 48.3% | Band Intensity [10]: 0 | Inhibition (%) [10]: 100% | Relative Intensity (%) [10]: 0% | relative binding capacity (100-%n, DMSO subtracted) (PKC-δ (purified isoform) [11]): 56% | Band Intensity [12]: 0 | Inhibition (%) [12]: 100% | Relative Intensity (%) [12]: 0% | Band Intensity [13]: 0 | Inhibition (%) [13]: 100% | Relative Intensity (%) [13]: 0% | relative binding capacity (100-%n, DMSO subtracted) (PKC-α (purified isoform) [14]): 26.5% | Band Intensity [15]: 5.12 | Inhibition (%) [15]: 99% | Relative Intensity (%) [15]: 0.12% | relative binding capacity (100-%n, DMSO subtracted) (PKC-α (purified isoform) [16]): 22.6%
